Data as given in patent US20070202043A1 (ARIUS RESEARCH, published 2007).

Experiments:
[1] = target: T1, human TROP-2 on the surface of human cell lines (the AR52A301.5 antigen) (human, UniProt P09758 27-323); test: cell-based or functional assay
T1 sequence (looked up): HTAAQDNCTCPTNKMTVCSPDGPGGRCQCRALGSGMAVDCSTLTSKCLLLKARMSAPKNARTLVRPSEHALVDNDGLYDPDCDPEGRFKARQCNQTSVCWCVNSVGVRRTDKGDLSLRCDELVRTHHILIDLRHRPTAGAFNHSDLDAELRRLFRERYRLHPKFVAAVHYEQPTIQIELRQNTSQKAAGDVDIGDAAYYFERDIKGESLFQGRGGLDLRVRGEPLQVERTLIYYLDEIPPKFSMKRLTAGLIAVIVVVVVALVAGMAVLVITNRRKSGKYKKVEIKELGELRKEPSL

[2] = target: T1, human TROP-2 on the surface of human …; test: flow cytometry, 20 micrograms/mL antibody, DLD-1 colon cancer cells
Description: (§1) Cells were prepared for FACS by initially washing the cell monolayer with DPBS (without Ca⁺⁺ and Mg⁺⁺). Cell dissociation buffer (INVITROGEN, Burlington, ON) was then used to dislodge the cells from their cell culture plates at 37° C. After centrifugation and collection, the cells were resuspended in DPBS containing MgCl₂, CaCl₂ and 2 percent fetal bovine serum at 4° C. […] Flow cytometric acquisition of the cells was assessed by running samples on a FACSarray™ using the FACSarray™ System Software (BD Biosciences, Oakville, ON). The forward (FSC) and side scatter (SSC) of the cells were set by adjusting the voltage and amplitude gains on the FSC and SSC detectors.

[3] = target: T1, human TROP-2 on the surface of human …; test: flow cytometry, 20 micrograms/mL antibody, HT-29 colon cancer cells
Description: as §1

[4] = target: T1, human TROP-2 on the surface of human …; test: flow cytometry, 20 micrograms/mL antibody, Hey ovarian cancer cells
Description: as §1

[5] = target: T1, human TROP-2 on the surface of human …; test: flow cytometry, 20 micrograms/mL antibody, C-13 ovarian cancer cells
Description: as §1

[6] = target: T1, human TROP-2 on the surface of human …; test: flow cytometry, 20 micrograms/mL antibody, MCF-7 breast cancer cells
Description: (§2) All cell lines, except for the majority of ovarian cancer cell lines, were obtained from the American Type Tissue Collection (ATCC, Manassas, Va.).
as §1

[7] = target: T1, human TROP-2 on the surface of human …; test: flow cytometry, 20 micrograms/mL antibody, OCC-1 ovarian cancer cells
Description: as §2, §1

[8] = target: T1, human TROP-2 on the surface of human …; test: flow cytometry, 20 micrograms/mL antibody, PC-3 prostate cancer cells
Description: as §2, §1

[9] = target: T1, human TROP-2 on the surface of human …; test: flow cytometry, 20 micrograms/mL antibody, Colo-205 colon cancer cells
Description: as §1

[10] = target: T1, human TROP-2 on the surface of human …; test: flow cytometry, 20 micrograms/mL antibody, OV2008 ovarian cancer cells
Description: as §2, §1

[11] = target: T1, human TROP-2 on the surface of human …; test: flow cytometry, 20 micrograms/mL antibody, DU-145 prostate cancer cells
Description: as §1

[12] = target: T1, human TROP-2 on the surface of human …; test: flow cytometry, 20 micrograms/mL antibody, PL45 pancreatic cancer cells
Description: as §2, §1

[13] = target: T1, human TROP-2 on the surface of human …; test: flow cytometry, 20 micrograms/mL antibody, T.Tn esophageal cancer cells
Description: as §1

[14] = target: T1, human TROP-2 on the surface of human …; test: flow cytometry, 20 micrograms/mL antibody, OVCA-429 ovarian cancer cells
Description: as §2, §1

[15] = target: T1, human TROP-2 on the surface of human …; test: flow cytometry, 20 micrograms/mL antibody, BxPC-3 pancreatic cancer cells
Description: as §1

[16] = target: T1, human TROP-2 on the surface of human …; test: flow cytometry, 20 micrograms/mL antibody, MDA-MB-468 breast cancer cells
Description: as §1

[17] = target: T1, human TROP-2 on the surface of human …; test: flow cytometry, 20 micrograms/mL antibody, FaDu head and neck cancer cells
Description: as §2, §1

[18] = target: T1, human TROP-2 on the surface of human …; test: flow cytometry, 20 micrograms/mL antibody, NCI-H520 lung cancer cells (weaker binding)
Description: as §2, §1

[19] = target: T1, human TROP-2 on the surface of human …; test: flow cytometry, 20 micrograms/mL antibody, Hs888.Lu non-cancer lung cells (weaker binding)
Description: as §1

[20] = target: T1, human TROP-2 on the surface of human …; test: flow cytometry, 20 micrograms/mL antibody, OVCAR-3 ovarian cancer cells (printed twice in the paragraph, once as OVAR-3)
Description: as §2, §1

- mean fluorescence intensity fold increase above isotype control [2]: 82.8 fold
- mean fluorescence intensity fold increase above isotype control [3]: 6.7 fold
- mean fluorescence intensity fold increase above isotype control [4]: 5.9 fold
- mean fluorescence intensity fold increase above isotype control [5]: 38.7 fold
- mean fluorescence intensity fold increase above isotype control [6]: 16 fold
- mean fluorescence intensity fold increase above isotype control [7]: 17.8 fold
- mean fluorescence intensity fold increase above isotype control [8]: 5 fold
- mean fluorescence intensity fold increase above isotype control [9]: 38.6 fold
- mean fluorescence intensity fold increase above isotype control [10]: 32.7 fold
- mean fluorescence intensity fold increase above isotype control [11]: 3.9 fold
- mean fluorescence intensity fold increase above isotype control [12]: 12.9 fold
- mean fluorescence intensity fold increase above isotype control [13]: 18.6 fold
- mean fluorescence intensity fold increase above isotype control [14]: 3.4 fold
- mean fluorescence intensity fold increase above isotype control [15]: 29.4 fold
- mean fluorescence intensity fold increase above isotype control [16]: 22.7 fold
- mean fluorescence intensity fold increase above isotype control [17]: 59.8 fold
- mean fluorescence intensity fold increase above isotype control [18]: 2.1 fold
- mean fluorescence intensity fold increase above isotype control [19]: 2.6 fold
- mean fluorescence intensity fold increase above isotype control [20]: 22.1 fold
B1: AR52A301.5 monoclonal antibody (hybridoma IDAC 141205-03) (antibody, mouse IgG1, V domains shown)
VH: EVQLQQSGPELVKPGASVKISCKASGYTFTDYNMHWVKQSHGKSLEWIGYIYPYNGGTGYNQRFKNKATLTVDISSSTAYMELRSLTSEDSAVYYCAREEDYYGFDYWGQGTTLTVSS
VL: DVVMTQTPLSLPVSLGQDASISCRSSQSLVHSYGNTYLHWYLQKPGQSPKLLIYKVSNRFSGVPDRFSGSGSGTDFTLKISRVEAEDMGVYFCSQSTHVYTFGGGTKLEIK
notes: Murine IgG1, kappa from the hybridoma; also called IDAC 141205-03 antibody
- cytotoxicity on OVCAR-3 cells relative to the positive control cycloheximide [1]: 53 percent
